Where a chain is given by its changes, count along the chain named.
Columns and labels:
Assay in all cases: cell-based or functional assay
Human TLL2 = target: T1, Human TLL2 (human, UniProt Q9Y6L7 150-1015, limits assumed)
T1 sequence (looked up): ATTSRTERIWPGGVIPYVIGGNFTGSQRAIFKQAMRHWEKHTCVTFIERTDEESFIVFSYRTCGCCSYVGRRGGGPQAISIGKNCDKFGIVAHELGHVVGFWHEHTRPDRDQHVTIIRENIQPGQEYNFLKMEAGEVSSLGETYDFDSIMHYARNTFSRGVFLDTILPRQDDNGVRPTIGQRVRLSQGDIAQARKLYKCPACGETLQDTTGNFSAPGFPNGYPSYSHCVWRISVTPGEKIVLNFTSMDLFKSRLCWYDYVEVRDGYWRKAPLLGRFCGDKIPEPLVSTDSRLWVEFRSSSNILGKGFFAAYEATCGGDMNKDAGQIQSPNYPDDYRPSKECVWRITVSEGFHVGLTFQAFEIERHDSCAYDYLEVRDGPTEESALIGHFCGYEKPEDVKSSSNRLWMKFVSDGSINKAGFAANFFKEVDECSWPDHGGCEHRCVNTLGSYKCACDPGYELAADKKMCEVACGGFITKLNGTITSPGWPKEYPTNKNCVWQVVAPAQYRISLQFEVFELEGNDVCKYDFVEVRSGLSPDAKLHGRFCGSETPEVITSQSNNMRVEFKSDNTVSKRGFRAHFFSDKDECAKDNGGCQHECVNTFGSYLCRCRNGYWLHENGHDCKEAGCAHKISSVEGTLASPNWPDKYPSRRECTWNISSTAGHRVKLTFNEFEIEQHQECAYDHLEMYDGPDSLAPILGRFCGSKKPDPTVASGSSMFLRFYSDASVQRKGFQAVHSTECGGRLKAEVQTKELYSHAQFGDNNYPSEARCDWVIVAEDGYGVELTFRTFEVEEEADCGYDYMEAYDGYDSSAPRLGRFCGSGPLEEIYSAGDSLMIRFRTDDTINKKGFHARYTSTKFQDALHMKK

Human BMP1-1 = target: T2, Human BMP1-1 (human, UniProt P13497-2 121-730, limits assumed)
T2 sequence (looked up): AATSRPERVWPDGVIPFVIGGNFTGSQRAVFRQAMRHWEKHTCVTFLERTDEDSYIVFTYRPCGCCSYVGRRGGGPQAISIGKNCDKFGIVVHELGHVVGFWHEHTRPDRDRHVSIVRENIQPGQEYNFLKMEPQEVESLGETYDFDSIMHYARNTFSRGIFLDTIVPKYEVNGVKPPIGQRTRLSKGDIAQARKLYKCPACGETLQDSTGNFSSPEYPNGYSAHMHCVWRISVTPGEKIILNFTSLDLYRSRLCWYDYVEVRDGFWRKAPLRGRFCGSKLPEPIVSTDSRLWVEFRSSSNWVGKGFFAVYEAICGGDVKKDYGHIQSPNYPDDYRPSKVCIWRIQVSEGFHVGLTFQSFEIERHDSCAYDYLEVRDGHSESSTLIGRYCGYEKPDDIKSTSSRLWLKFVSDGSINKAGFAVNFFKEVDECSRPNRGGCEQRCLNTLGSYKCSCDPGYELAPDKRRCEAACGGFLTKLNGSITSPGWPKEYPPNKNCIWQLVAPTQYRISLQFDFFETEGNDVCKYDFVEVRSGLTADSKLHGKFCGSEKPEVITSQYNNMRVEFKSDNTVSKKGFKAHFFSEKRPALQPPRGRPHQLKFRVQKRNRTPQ

Mouse TLL1 = target: T3, Mouse TLL1 (mouse, UniProt Q62381 148-1013, limits assumed)
T3 sequence (looked up): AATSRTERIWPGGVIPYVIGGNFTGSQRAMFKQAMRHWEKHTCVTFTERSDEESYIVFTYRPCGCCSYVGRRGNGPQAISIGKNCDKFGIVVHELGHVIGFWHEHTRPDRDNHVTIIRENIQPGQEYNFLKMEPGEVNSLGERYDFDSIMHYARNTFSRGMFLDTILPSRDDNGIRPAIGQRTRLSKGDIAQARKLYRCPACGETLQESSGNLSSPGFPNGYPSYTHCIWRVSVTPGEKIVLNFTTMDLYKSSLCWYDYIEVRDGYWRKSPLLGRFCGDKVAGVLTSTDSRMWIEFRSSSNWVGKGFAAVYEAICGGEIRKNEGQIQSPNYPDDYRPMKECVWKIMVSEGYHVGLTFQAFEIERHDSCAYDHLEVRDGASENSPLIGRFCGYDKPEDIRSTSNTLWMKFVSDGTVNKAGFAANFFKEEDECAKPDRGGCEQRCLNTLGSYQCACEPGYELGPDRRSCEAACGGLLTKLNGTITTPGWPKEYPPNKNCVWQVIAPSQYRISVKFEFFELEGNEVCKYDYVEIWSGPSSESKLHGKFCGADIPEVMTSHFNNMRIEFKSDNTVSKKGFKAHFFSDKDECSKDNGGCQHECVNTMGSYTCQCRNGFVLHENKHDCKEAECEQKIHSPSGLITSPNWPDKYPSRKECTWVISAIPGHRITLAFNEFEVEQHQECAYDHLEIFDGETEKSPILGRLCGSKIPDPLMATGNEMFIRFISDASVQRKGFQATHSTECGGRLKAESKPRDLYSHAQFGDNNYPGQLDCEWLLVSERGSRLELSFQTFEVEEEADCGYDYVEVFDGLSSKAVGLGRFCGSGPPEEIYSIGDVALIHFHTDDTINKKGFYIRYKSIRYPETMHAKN

B1: 13Y039-127G03-2890 (antibody, human IgG1, kappa, V domains shown)
VH: QVQLVQSGAEVKKPGSSVKVSCKASGGTFSSYAISWVRQAPGQGLEWMGGIIPVFGSAYYAQKFQGRVTITADESTSTAYMELSSLRSEDTAVYYCAGEGRAYYGSESYDDSDYMDVWGKGTTVTVSS
VL: DIQMTQSPSSLSASVGDRVTITCQASQDISNYLNWYQQKPGKAPKLLIYDASNLETGVPSRFSGSGSGTDFTFTISSLQPEDIATYYCQQADIFPLTFGGGTKVEIKR
notes: Fully human IgG1 LAGA, kappa; HEK expressed
Human TLL2
  IC50, FRET enzyme activity, 500 pM huTLL-2: 0.15 nM
Human BMP1-1
  IC50, FRET enzyme activity, 62.5 pM huBMP1: 0.4 nM
Mouse TLL1
  IC50, FRET enzyme activity, 800 pM biotinylated mTLL-1: 0.88 nM

B2: 13Y039-152B02-2940 (antibody, human IgG1, kappa, V domains shown)
VH: QVQLVQSGAEVKKPGSSVKVSCKASGGTFSSDAISWVRQAPGQGLEWMGGIITNFGTATYAQKFQGRVTITADESTSTAYMELSSLRSEDTAVYYCARDVGVQLVYHGAFDIWGQGTMVTVSS
VL: B1 VL with E55A, A91D, I93Y, F94L, L96I
notes: as for B1
Human TLL2
  IC50, FRET enzyme activity, 500 pM huTLL-2: 0.28 nM
Human BMP1-1
  IC50, FRET enzyme activity, 62.5 pM huBMP1: 0.13 nM
Mouse TLL1
  IC50, FRET enzyme activity, 800 pM biotinylated mTLL-1: 0.1 nM

B3: 13Y039-152B02-2935 (antibody, human IgG1, kappa, V domains shown)
VH: B2 VH with S31E, D32S, T53P, N54T, G56D, A58T, T59N
VL: B1 VL with E55A, A91D, I93Y, F94L, L96I
notes: as for B1
Human TLL2
  IC50, FRET enzyme activity, 500 pM huTLL-2: 0.2 nM
Human BMP1-1
  IC50, FRET enzyme activity, 62.5 pM huBMP1: 0.25 nM
Mouse TLL1
  IC50, FRET enzyme activity, 800 pM biotinylated mTLL-1: 0.07 nM

B4: 13Y039-152B02-2948 (antibody, human IgG1, kappa, V domains shown)
VH: B2 VH with S31D, D32F, T53P, N54I, F55Y, T59S, Q65L
VL: B1 VL with E55A, A91D, I93Y, F94L, L96I
notes: as for B1
Human TLL2
  IC50, FRET enzyme activity, 500 pM huTLL-2: 0.86 nM
Human BMP1-1
  IC50, FRET enzyme activity, 62.5 pM huBMP1: 0.31 nM
Mouse TLL1
  IC50, FRET enzyme activity, 800 pM biotinylated mTLL-1: 0.11 nM

B5: 13Y039-4B06-4324 (antibody, human IgG1, kappa, V domains shown)
VH: QVQLVQSGAEVKKPGASVKVSCKASGYTFRGYYMSWVRQAPGQGLEWMGWINPMSGETNYAQKFQGRVTMTRDTSISTAYMELSRLRSDDTAVYYCARDTGELDGMNWYFDLWGRGTLVTVSS
VL: EIVLTQSPATLSLSPGERATLSCRASQSVSSYLAWYQQKPGQAPRLLIYDASNRATGIPARFSGSGSGTDFTLTISSLEPEDFAVYYCQQSDSWPPTFGGGTKVEIKR
notes: as for B1
Human TLL2
  IC50, FRET enzyme activity, 500 pM huTLL-2: 0.04 nM
Human BMP1-1
  IC50, FRET enzyme activity, 62.5 pM huBMP1: 0.02 nM
Mouse TLL1
  IC50, FRET enzyme activity, 800 pM biotinylated mTLL-1: 0.1 nM

B6: 13Y039-4B06-4325 (antibody, human IgG1, kappa, V domains shown)
VH: B5 VH with R30W, M54Q
VL: B5 VL
notes: as for B1
Human TLL2
  IC50, FRET enzyme activity, 500 pM huTLL-2: 0.05 nM
Human BMP1-1
  IC50, FRET enzyme activity, 62.5 pM huBMP1: 0.03 nM
Mouse TLL1
  IC50, FRET enzyme activity, 800 pM biotinylated mTLL-1: 0.07 nM

B7: 13Y039-4B06-4327 (antibody, human IgG1, kappa, V domains shown)
VH: B5 VH with R30P, S35T, W50N, M54N, E57W
VL: B5 VL
notes: as for B1
Human TLL2
  IC50, FRET enzyme activity, 500 pM huTLL-2: 0.03 nM
Human BMP1-1
  IC50, FRET enzyme activity, 62.5 pM huBMP1: 0.01 nM
Mouse TLL1
  IC50, FRET enzyme activity, 800 pM biotinylated mTLL-1: 0.04 nM

B8: 13Y039-4B06-4328 (antibody, human IgG1, kappa, V domains shown)
VH: B5 VH with R30H, S35N, M54L
VL: B5 VL
notes: as for B1
Human TLL2
  IC50, FRET enzyme activity, 500 pM huTLL-2: 0.02 nM
Human BMP1-1
  IC50, FRET enzyme activity, 62.5 pM huBMP1: 0.03 nM
Mouse TLL1
  IC50, FRET enzyme activity, 800 pM biotinylated mTLL-1: 0.07 nM

B9: 13Y039-4B06-4348 (antibody, human IgG1, kappa, V domains shown)
VH: B5 VH with R30G, M54N, N59Y
VL: B5 VL
notes: as for B1
Human TLL2
  IC50, FRET enzyme activity, 500 pM huTLL-2: 0.04 nM
Human BMP1-1
  IC50, FRET enzyme activity, 62.5 pM huBMP1: 0.02 nM
Mouse TLL1
  IC50, FRET enzyme activity, 800 pM biotinylated mTLL-1: 0.12 nM

B10: 13Y039-4B06-4351 (antibody, human IgG1, kappa, V domains shown)
VH: B5 VH with R30S, M54N, N59F
VL: B5 VL
notes: as for B1
Human TLL2
  IC50, FRET enzyme activity, 500 pM huTLL-2: 0.03 nM
Human BMP1-1
  IC50, FRET enzyme activity, 62.5 pM huBMP1: 0.03 nM
Mouse TLL1
  IC50, FRET enzyme activity, 800 pM biotinylated mTLL-1: 0.14 nM

B11: 13Y039-4B06-4364 (antibody, human IgG1, kappa, V domains shown)
VH: B5 VH with M54N, N59I
VL: B5 VL
notes: as for B1
Human TLL2
  IC50, FRET enzyme activity, 500 pM huTLL-2: 0.05 nM
Human BMP1-1
  IC50, FRET enzyme activity, 62.5 pM huBMP1: 0.02 nM
Mouse TLL1
  IC50, FRET enzyme activity, 800 pM biotinylated mTLL-1: 0.13 nM

B12: 13Y039-4B06-4373 (antibody, human IgG1, kappa, V domains shown)
VH: B5 VH with G31S, S35N, W50I, M54S, N59S, I76T, A79V, R85S, D89E
VL: B5 VL
notes: as for B1
Human TLL2
  IC50, FRET enzyme activity, 500 pM huTLL-2: 0.1 nM
Human BMP1-1
  IC50, FRET enzyme activity, 62.5 pM huBMP1: 0.09 nM
Mouse TLL1
  IC50, FRET enzyme activity, 800 pM biotinylated mTLL-1: 0.13 nM

B13: 13Y039-4B06-4376 (antibody, human IgG1, kappa, V domains shown)
VH: B5 VH with R30M, S35N, M54S
VL: B5 VL
notes: as for B1
Human TLL2
  IC50, FRET enzyme activity, 500 pM huTLL-2: 0.09 nM
Human BMP1-1
  IC50, FRET enzyme activity, 62.5 pM huBMP1: 0.05 nM
Mouse TLL1
  IC50, FRET enzyme activity, 800 pM biotinylated mTLL-1: 0.16 nM

Reference: patent publication US20230279089A1 (GlaxoSmithKline, published 2023)
